Data taken from US20130330359A1.

Assays:
[1] = molecular target: carrier free RGMa (R&D Systems) (UniProt Q96B86); test: direct EIA: carrier-free RGMa coated at 0.5 ug/mL; sample at 2 ug/ml; goat anti-mouse IgG-HRPO
[2] = molecular target: carrier free RGMc (R&D Systems) (human) (UniProt Q6ZVN8); test: direct EIA: carrier-free RGMc coated at 0.5 ug/mL; sample at 2 ug/ml; goat anti-mouse IgG-HRPO
[3] = molecular target: carrier free RGMb (R&D Systems) (UniProt Q6NW40); test: direct EIA: carrier-free RGMb coated at 0.5 ug/mL; sample at 2 ug/ml; goat anti-mouse IgG-HRPO
Sequence of carrier free RGMb (R&D Systems) (Q6NW40 46-413 limits assumed): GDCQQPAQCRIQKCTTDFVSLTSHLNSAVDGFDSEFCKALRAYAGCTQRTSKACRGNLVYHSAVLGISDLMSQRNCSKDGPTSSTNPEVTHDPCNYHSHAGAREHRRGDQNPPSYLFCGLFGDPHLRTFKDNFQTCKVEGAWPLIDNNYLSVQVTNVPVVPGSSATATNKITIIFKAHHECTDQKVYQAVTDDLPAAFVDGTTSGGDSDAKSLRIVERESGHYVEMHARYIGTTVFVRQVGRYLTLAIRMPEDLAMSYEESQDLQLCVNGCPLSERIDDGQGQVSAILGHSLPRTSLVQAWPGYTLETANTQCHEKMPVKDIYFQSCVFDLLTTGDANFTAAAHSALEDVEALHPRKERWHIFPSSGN

Sequence of carrier free RGMc (R&D Systems) (human) (Q6ZVN8 36-400 limits assumed): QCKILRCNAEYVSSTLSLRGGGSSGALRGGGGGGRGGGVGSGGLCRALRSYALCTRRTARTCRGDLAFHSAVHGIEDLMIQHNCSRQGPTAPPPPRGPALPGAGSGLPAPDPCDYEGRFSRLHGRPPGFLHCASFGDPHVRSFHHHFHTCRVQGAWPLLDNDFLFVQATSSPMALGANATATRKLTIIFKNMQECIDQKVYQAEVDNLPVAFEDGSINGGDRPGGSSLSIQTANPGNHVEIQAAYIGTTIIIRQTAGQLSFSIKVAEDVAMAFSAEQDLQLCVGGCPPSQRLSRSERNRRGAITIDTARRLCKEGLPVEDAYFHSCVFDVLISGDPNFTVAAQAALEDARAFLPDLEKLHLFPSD
Sequence of carrier free RGMa (R&D Systems) (Q96B86 48-422 limits assumed): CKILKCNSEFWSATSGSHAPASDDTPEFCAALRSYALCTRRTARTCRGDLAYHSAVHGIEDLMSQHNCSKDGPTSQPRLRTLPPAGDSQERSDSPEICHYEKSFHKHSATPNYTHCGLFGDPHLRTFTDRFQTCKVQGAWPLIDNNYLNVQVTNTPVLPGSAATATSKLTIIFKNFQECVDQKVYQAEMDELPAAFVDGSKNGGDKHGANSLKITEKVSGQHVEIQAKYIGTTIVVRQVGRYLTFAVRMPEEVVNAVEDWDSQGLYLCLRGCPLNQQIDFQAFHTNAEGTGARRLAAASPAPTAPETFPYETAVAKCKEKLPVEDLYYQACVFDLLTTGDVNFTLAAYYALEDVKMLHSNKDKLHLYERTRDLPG

## negative control: purified mouse mAb from an irrelevant / different antigen system (antibody)
[1]
  absorbance at 492 nm: 0.1
[2]
  absorbance at 492 nm: 0.14
[3]
  absorbance at 492 nm: 0.09
